Measurements as given in a protein production outcome set (Wang et al. 2014).

Test: label from the status in PepcDB records

Sequence	protein production
MDDVGRYQCLAVNEMGTVKKVVTVVLQSAPVFQVEPRDVTVRSGVDVELRCRATGEPVPTIEWLRAGRPLQAGRKLRALPDGSLWLEHVEAGDAGVYECVAHNRLGSVTAKALLAVRGEPRGSRGSMTGVINGQEFGMATLNISVLQQGSSEAPTIWSSISHVPASVGPLMRVLVVTIAPIYWALARESGEALNGYSLTGGSFQQESQMEFSTGELLTMTQVARGLDPDGLLLVDMKINGMIPESLADGDLRVQDFQEHYVQTGPGQLFAGSTQRFLHDSLPASLRCNHSIQYDETRGLQPQLVQHLRASSISSAFDPEAEALNFQLTTALQTEENEVGCPEGFEPDVQGAFCVDKDECSGGPSPCSHTCRNAPGHFSCSCPTGFSLAWDHRNCRDVDECAGDTHLCQEEQRCVNLLGSYNCLASCRPGFRVTADGSNCEDVDECLEQLDECHYNQLCENTPGGHHCGCPRGYRQQGHSLPCLDINECLQLPTPCVYQCQNLQGSYRCLCPPGQTLLRDGRTCIPLERNRQNITIVSHRSPFGPWLRSRVPRPSSSYHTWVSLRPGSGALNSVGRAWCPPGFIRQDGVCADLDECRVRSLCQHACQNTEGSYYCLCPSGYRLLPSGKNCQDINECEEDGIECGPGQMCFNTRGSFQCVDTPCPTTYRQGSSPGTCFRRCSQDCSASGPSTLQYRLLPLPLGVRAHHDVARLAAFSEAGIPANRTELTVLEPDPRSPFALRQLRAGQGAVYTRRALTRAGLYRLTVRAAAPRHQSVYILLIAVSPYPY	failed
KKPEGKPDQKFDQKQELGRVIHLSNLPHSGYSDSAVLKLAEPYGKIKNYILMRMKSQAFIEMETREDAMAMVDHCLKKALWFQGRCVKVDLSEKYKKLV	not failed
MTVQRREKGSSITRVLEIIEAISRAERPMSPAELAFLLDIPKPSIHRLLQQLEADNYVQINMRGLLVPGDRMHSIALGVLHSSRFKALRQAILKKLAETIGETCGIAIPDGIEMIYYDRVQTNWPLRVNLPVGSHTPVACTASGKLYLSSLPKERRHRIIGKLSLEKLARNTLIESESLEKELINIQANELGTDNEEFIDGMVACSVPIKDQDGKLFACLFTHAPVIRKSLDELLAFEPALRHAAIELGDLLKEQ	failed
MMARVEKLRELMKENNLQGFLVTSPYNLRYLTNFTGTTGLAMITLDKAFFVTDFRYTEQAAEQATGFTIVKNTGHIFDEVADLAERLQLDNLAFEETQVSFADYSLLEEILPCELVPVMGLIEELR	not failed
TSTDAAGGDSYRVGINQLVQHPALDAATTGFKEAFEEAGVDVTFDEQNANGEQGTALTISQQFASDNLDLVLAVATPAAQATAQNITDIPVLFTAVTDAVSAELVDSNEAPGGNVTGTSDIAPIEQQLELLQQLVPDAKSIGIVYASGEVNSQVQVDEVTKAAEPLGLSVNTQTVTTVNEIQQAVEALGDVDVIYVPTDNMVVSGISSLVQVAEQKQIPVIGAESGTVEGGALATLGIDYTELGRQTGEMALRILQDGEDPATMPVETATEFTYVINEDAAERQGVEIPQEILDKAERV	failed
MGHHHHHHSHMSYKPNLAAHMPAAALNAAGSVHSPSTSMATSSQYRQLLSDYGPPSLGYTQGTGNSQVPQSKYAELLAIIEELGKEIRPTYAGSKSAMERLKRGIIHARGLVRECLAETERNARS	failed
MGKRIAFWFEFASTYSYLSAMRIERAAADLGVTIAWEPFLLGPIFAAQGWTSSPFNLFPAKGRYMWRDMERLCARQGLPLTRPDPFPQNGLPAARLAMVAREMGHIAPFVRAVYAAQFGRGLVISDPQVLAECWAEAGLPPEAMEQAKSPEIKAALFAQGERAAALDLFGAPSFVVGEEVFWGDDRLDQALALAAQS	not failed
MEKTLETVPLERKKREKEQFRKLFIGGLSFETTEESLRNYYEQWGKLTDCVVMRDPASKRSRGFGFVTFSSMAEVDAAMAARPHSIDGRVVEPKRAVAREESG	not failed
MAINRSSDHESDENTRLYHPYQNYQVPIKSQYLYKLPTSPEFLFTEESLKQRRSWGENLTFYTGTGYLAGSVAGASAGIFSGIKSFENGDTTKLKINRILNSSGQAGRTWGNRVGIVGLIYAGIESGVVAVTDKDDVWTSVVAGLGTGAVFRAARGVRSAAVAGAFGGIAAGAVVAGKQVFKRDPERGSITLDP	failed
MPAKDVQICPIAVDTTVFRSRTWDRLKFEIEYGLQRGTTANSYLISADKIALFDPPGESFTDNFVGTLIQRLDLNSLDYVILGHVNANRAHTLKLLLSLAPQATIICSNPAAQNLEKLLADAEVNNPIQVMKGNDHLDLGRGHELTFIPTPSPRYPGQLCTYDPRTEILFTDKLFGAHVCGDQVFDEGWTIYQEDRRYYFDCLLAPAAAQVSAALNKLEAYPAQTYAPSHGPLVRYGLRELTRNYQQWLSEQQAQALEHHHHHH	failed
HFNVLADTPSGLVPLHLRSPQVPAAQQMLNFPEKNKEKPVDLQNFGLRTDIYSKKTLAKSKGASAGREWTEQETLLLLEALEMYKDDWNKVSEHVGSRTQDECILHFLRLPIEDPYLENSDASLGPLAYQPVPFSQSGNPVMSTVAFLASVVDPRVASAAAKAALEEFSRVREEVPLELVEAHVKKVQEAARASGKVDPTYGLESSCIAGTGPDEPEKLEGAEEEKMEADPDGQQPEKAENKVENETDEGDKAQDGENEKNSEKEQDSEVSEDTKSEEKETEENKELTDTCKERESDTGKKKVEHEISEGNVATAAAAALASAATKAKHLAAVEERKIKSLVALLVETQMKKLEIKLRHFEELETIMDREKEALEQQRQQLLTERQNFHMEQLKYAELRARQQMEQQQHGQNPQQAHQHSGGPGLAPLGAAGHPGMMPHQQPPPYPLMHHQMPPPHPPQPGQIPGPGSMMPGQHMPGRMIPTVAANIHPSGSGPTPPGMPPMPGNILGPRVPLTAPNGMYPPPPQQQPPPPPPADGVPPPPAPGPPASAAP	not failed
HYGEEPELVPSYTIFFSGCNFRCVFCQNWDISQFRVGVELLPEYLALKIERAYRFGARNVNFVGGEPTPNLPYILETLRYVNVPIPVVWNSNMYMSEEAMKLLDGIVD	failed
MSWMQNLKNYQHLRDPSEYMSQVYGDPLAYLQETTKFVTEREYYEDFGYG	failed
MMTQPMPGKPAEDAENELDIRGLFRTLWAGKLWIIGMGLAFALIALAYTFFARQEWSSTAITDRPTVNMLGGYYSQQQFLRNLDVRSNMASADQPSVMDEAYKEFVMQLASWDTRREFWLQTDYYKQRMVGNSKADAALLDEMINNIQFIPGDFTRAVNDSVKLIAETAPDANNLLRQYVAFASQRAASHLNDELKGAWAARTIQMKAQVKRQEEVAKAIYDRRMNSIEQALKIAEQHNISRSATDVPAEELPDSEMFLLGRPMLQARLENLQAVGPAFDLDYDQNRAMLNTLNVGPTLDPRFQTYRYLRTPEEPVKRDSPRRAFLMIMWGIVGGLIGAGVALTRRCSK	not failed
MLLTIIYIIAITAEAMTGALSAGRRSMDWFGVILIACVTALGGGSVRDVLLGHYPLTWVKHPEYLVLTCCAALFTILIAKWMRHLRNIFLILDALGLIGFTIIGCQIALQMGHGFVVSAVAGVLTGVSGGILRDILCNDVPLVFRRELYASISFVAVICYWLCLNIGMSLELTVIFTLIFGFVLRLIAIYFGLEMPKFIYQEDDADSASSTDKH	failed
